From patent US20150329594A1 (University of California, published 2015)
Bridge positions count the residues as written; N and C are the ends. Square brackets hold non-standard residues; d marks the D form. Nal = 1-naphthylalanine or 2-naphthylalanine; Trp(1-Me) = Cn1cc(C[C@H](N)C(=O)O)c2ccccc21; Aal = not defined here; Sea = not defined here

Tests used:
[1] = biological target: T1, human complement protein C3 (human, UniProt P01024 23-1663); test: cell-based or functional assay
[2] = biological target: T1, human complement protein C3; test: cell-based or functional assay; remark: listed apart in the source

T1 sequence (P01024 23-1663 limits assumed): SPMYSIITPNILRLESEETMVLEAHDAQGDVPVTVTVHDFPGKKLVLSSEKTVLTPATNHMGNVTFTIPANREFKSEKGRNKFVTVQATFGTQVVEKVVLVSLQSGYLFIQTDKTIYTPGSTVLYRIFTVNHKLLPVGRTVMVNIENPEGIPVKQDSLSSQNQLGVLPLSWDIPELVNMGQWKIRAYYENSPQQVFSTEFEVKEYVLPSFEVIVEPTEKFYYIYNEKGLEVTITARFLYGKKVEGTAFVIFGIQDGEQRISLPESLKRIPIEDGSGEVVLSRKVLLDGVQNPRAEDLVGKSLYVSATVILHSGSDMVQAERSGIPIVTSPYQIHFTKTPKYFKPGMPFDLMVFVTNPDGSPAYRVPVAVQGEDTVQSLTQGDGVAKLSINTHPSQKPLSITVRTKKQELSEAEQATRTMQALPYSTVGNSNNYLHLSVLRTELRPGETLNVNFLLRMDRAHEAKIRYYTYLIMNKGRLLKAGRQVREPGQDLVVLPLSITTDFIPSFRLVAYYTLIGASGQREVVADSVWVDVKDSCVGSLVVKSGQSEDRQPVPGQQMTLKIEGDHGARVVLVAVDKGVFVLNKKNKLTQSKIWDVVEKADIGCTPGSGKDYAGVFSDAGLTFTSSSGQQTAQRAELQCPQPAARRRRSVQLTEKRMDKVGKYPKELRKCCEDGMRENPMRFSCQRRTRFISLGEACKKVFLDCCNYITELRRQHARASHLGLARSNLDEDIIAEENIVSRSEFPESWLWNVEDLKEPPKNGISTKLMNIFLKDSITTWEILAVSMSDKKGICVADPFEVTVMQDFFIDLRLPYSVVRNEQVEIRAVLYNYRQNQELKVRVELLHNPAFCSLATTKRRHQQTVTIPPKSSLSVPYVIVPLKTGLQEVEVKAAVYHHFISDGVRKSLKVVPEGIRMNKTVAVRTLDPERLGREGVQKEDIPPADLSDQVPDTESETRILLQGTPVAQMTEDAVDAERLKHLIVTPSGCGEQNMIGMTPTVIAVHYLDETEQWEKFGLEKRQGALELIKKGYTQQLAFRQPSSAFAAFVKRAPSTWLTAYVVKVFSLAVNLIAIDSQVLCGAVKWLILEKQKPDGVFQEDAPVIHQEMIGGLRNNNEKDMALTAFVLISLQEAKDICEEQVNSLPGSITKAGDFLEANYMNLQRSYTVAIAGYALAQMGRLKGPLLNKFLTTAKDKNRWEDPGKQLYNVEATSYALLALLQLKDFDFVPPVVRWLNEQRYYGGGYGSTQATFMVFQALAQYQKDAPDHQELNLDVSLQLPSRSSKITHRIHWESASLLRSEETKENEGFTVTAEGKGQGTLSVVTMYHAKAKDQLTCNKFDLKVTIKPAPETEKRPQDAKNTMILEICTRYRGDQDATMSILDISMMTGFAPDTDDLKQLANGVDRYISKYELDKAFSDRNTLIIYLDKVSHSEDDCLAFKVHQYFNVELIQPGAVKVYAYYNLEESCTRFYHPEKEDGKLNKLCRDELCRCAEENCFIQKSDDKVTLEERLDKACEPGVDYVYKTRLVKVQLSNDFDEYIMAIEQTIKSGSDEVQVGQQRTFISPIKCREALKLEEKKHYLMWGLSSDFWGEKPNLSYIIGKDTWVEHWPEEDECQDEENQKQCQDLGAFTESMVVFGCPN

Ac-ICVWQDWG[Nal]HRCT-NH2 (disulfide 2-12; not fully specified; printed as Ac-ICVWQDWG{Nal}HRCT-NH2) [Peptide 2.2, Ac-ICVWQDWG{Nal}HRCT-NH2]
C3b ELISA IC50 [1]: 2400 nM | C5b-9 ELISA IC50 [1]: 2000 nM | Lysis IC50 [1]: 1400 nM

Ac-ICVWQDWG[Aal]HRCT-NH2 (disulfide 2-12; reading uncertain; also: printed as Ac-ICVWQDWG{Aal}HRCT-NH2) [Peptide 2.4, Ac-ICVWQDWG{Aal}HRCT-NH2]
C3b ELISA IC50 [1]: 900 nM | C5b-9 ELISA IC50 [1]: 800 nM | Lysis IC50 [1]: 700 nM

Ac-ERICV[Nal]QDWG[Nal]HRCT-NH2 (disulfide 4-14; not fully specified; printed as Ac-ERICV{Nal}QDWG{Nal}HRCT-NH2) [Peptide 4.5, Ac-ER-ICV{Nal}QDWG{Nal}HRCT-NH2]
C3b ELISA IC50 [1]: 3800 nM | C5b-9 ELISA IC50 [1]: 2400 nM | Lysis IC50 [1]: 3000 nM

Ac-NNLCV[Nal]QDWG[Nal]HRCT-NH2 (disulfide 4-14; not fully specified; printed as Ac-NNLCV{Nal}QDWG{Nal}HRCT-NH2) [Peptide 4.6, Ac-NN-LCV{Nal}QDWG{Nal}HRCT-NH2]
C3b ELISA IC50 [1]: 3900 nM | C5b-9 ELISA IC50 [1]: 2300 nM | Lysis IC50 [1]: 2200 nM

Ac-RSICVWQDWG[Nal]HRCT-NH2 (disulfide 4-14; not fully specified; printed as Ac-RS-ICVWQDWG{Nal}HRCT-NH2) [Peptide 4.4, Ac-RS-ICVWQDWG{Nal}HRCT-NH2]
C3b ELISA IC50 [1]: 3100 nM | C5b-9 ELISA IC50 [1]: 2000 nM | Lysis IC50 [1]: 1800 nM

B1: Peptide VIII, Ac-SS-RCVme…-NH2 (peptide)
peptide: Ac-SSRCV[Trp(1-Me)]QDWGAHRCT-NH2
modifications: disulfide 4-14
SMILES: CC(=O)N[C@@H](CO)C(=O)N[C@@H](CO)C(=O)N[C@@H](CCCNC(=N)N)C(=O)N[C@H]1CSSC[C@@H](C(=O)N[C@H](C(N)=O)[C@@H](C)O)NC(=O)[C@H](CCCNC(=N)N)NC(=O)[C@H](Cc2c[nH]cn2)NC(=O)[C@H](C)NC(=O)CNC(=O)[C@H](Cc2c[nH]c3ccccc23)NC(=O)[C@H](CC(=O)O)NC(=O)[C@H](CCC(N)=O)NC(=O)[C@H](Cc2cn(C)c3ccccc23)NC(=O)[C@H](C(C)C)NC1=O
IC50 (assay not named in Table 7; preliminary C3b ELISA by paragraph 235) [2]: 420000 nM

Ac-ICVWQDWG[Sea]HRCT-NH2 (disulfide 2-12; reading uncertain; also: printed as Ac-ICVWQDWG{Sea}HRCT-NH2) [Peptide 2.5, Ac-ICVWQDWG{Sea}HRCT-NH2]
C3b ELISA IC50 [1]: 600 nM | C5b-9 ELISA IC50 [1]: 700 nM | Lysis IC50 [1]: 500 nM

B2: Peptide 3.1, Ac-ER-ICVWQDWGAHRCT-NH2 (peptide)
peptide: Ac-ERICVWQDWGAHRCT-NH2
modifications: disulfide 4-14
SMILES: CC[C@H](C)[C@H](NC(=O)[C@H](CCCNC(=N)N)NC(=O)[C@H](CCC(=O)O)NC(C)=O)C(=O)N[C@H]1CSSC[C@@H](C(=O)N[C@H](C(N)=O)[C@@H](C)O)NC(=O)[C@H](CCCNC(=N)N)NC(=O)[C@H](Cc2c[nH]cn2)NC(=O)[C@H](C)NC(=O)CNC(=O)[C@H](Cc2c[nH]c3ccccc23)NC(=O)[C@H](CC(=O)O)NC(=O)[C@H](CCC(N)=O)NC(=O)[C@H](Cc2c[nH]c3ccccc23)NC(=O)[C@H](C(C)C)NC1=O
C3b ELISA IC50 [1]: 900 nM | C5b-9 ELISA IC50 [1]: 500 nM | Lysis IC50 [1]: 900 nM

Ac-ERICVWQDWG[Nal]HRCT-NH2 (disulfide 4-14; not fully specified; printed as Ac-ER-ICVWQDWG{Nal}HRCT-NH2) [Peptide 4.1, Ac-ER-ICVWQDWG{Nal}HRCT-NH2]
C3b ELISA IC50 [1]: 3000 nM | C5b-9 ELISA IC50 [1]: 1800 nM | Lysis IC50 [1]: 2300 nM

B3: Peptide 3.2, Ac-NN-LCVWQDWGAHRCT-NH2 (peptide)
peptide: Ac-NNLCVWQDWGAHRCT-NH2
modifications: disulfide 4-14
SMILES: CC(=O)N[C@@H](CC(N)=O)C(=O)N[C@@H](CC(N)=O)C(=O)N[C@@H](CC(C)C)C(=O)N[C@H]1CSSC[C@@H](C(=O)N[C@H](C(N)=O)[C@@H](C)O)NC(=O)[C@H](CCCNC(=N)N)NC(=O)[C@H](Cc2c[nH]cn2)NC(=O)[C@H](C)NC(=O)CNC(=O)[C@H](Cc2c[nH]c3ccccc23)NC(=O)[C@H](CC(=O)O)NC(=O)[C@H](CCC(N)=O)NC(=O)[C@H](Cc2c[nH]c3ccccc23)NC(=O)[C@H](C(C)C)NC1=O
C3b ELISA IC50 [1]: 600 nM | C5b-9 ELISA IC50 [1]: 500 nM | Lysis IC50 [1]: 300 nM

B4: Peptide IV, Ac-SS-ICVWQDWGAHRCT-NH2 (peptide)
peptide: Ac-SSICVWQDWGAHRCT-NH2
modifications: disulfide 4-14
SMILES: CC[C@H](C)[C@H](NC(=O)[C@H](CO)NC(=O)[C@H](CO)NC(C)=O)C(=O)N[C@H]1CSSC[C@@H](C(=O)N[C@H](C(N)=O)[C@@H](C)O)NC(=O)[C@H](CCCNC(=N)N)NC(=O)[C@H](Cc2c[nH]cn2)NC(=O)[C@H](C)NC(=O)CNC(=O)[C@H](Cc2c[nH]c3ccccc23)NC(=O)[C@H](CC(=O)O)NC(=O)[C@H](CCC(N)=O)NC(=O)[C@H](Cc2c[nH]c3ccccc23)NC(=O)[C@H](C(C)C)NC1=O
IC50 (assay not named in Table 7; preliminary C3b ELISA by paragraph 235) [2]: 330000 nM

Ac-NRLCVWQDWG[Nal]HRCT-NH2 (disulfide 4-14; not fully specified; printed as Ac-NR-LCVWQDWG{Nal}HRCT-NH2) [Peptide 4.3, Ac-NR-LCVWQDWG{Nal}HRCT-NH2]
C3b ELISA IC50 [1]: 2000 nM | C5b-9 ELISA IC50 [1]: 1200 nM | Lysis IC50 [1]: 1200 nM

Ac-ICV[Trp(1-Me)]QDWG[Nal]HRCT-NH2 (disulfide 2-12; not fully specified; printed as Ac-ICV{meW}QDWG{Nal}HRCT-NH2) [Peptide 2.1, Ac-ICVmeWQDWG{Nal}HRCT-NH2]
C3b ELISA IC50 [1]: 1400 nM | C5b-9 ELISA IC50 [1]: 900 nM | Lysis IC50 [1]: 900 nM

B5: Peptide V, Ac-WW-RCVWQDWGAHRCT-NH2 (peptide)
peptide: Ac-WWRCVWQDWGAHRCT-NH2
modifications: disulfide 4-14
SMILES: CC(=O)N[C@@H](Cc1c[nH]c2ccccc12)C(=O)N[C@@H](Cc1c[nH]c2ccccc12)C(=O)N[C@@H](CCCNC(=N)N)C(=O)N[C@H]1CSSC[C@@H](C(=O)N[C@H](C(N)=O)[C@@H](C)O)NC(=O)[C@H](CCCNC(=N)N)NC(=O)[C@H](Cc2c[nH]cn2)NC(=O)[C@H](C)NC(=O)CNC(=O)[C@H](Cc2c[nH]c3ccccc23)NC(=O)[C@H](CC(=O)O)NC(=O)[C@H](CCC(N)=O)NC(=O)[C@H](Cc2c[nH]c3ccccc23)NC(=O)[C@H](C(C)C)NC1=O
IC50 (assay not named in Table 7; preliminary C3b ELISA by paragraph 235) [2]: 460000 nM

B6: Peptide VII, Ac-RS-RCVme…-NH2 (peptide)
peptide: Ac-RSRCV[Trp(1-Me)]QDWGAHRCT-NH2
modifications: disulfide 4-14
SMILES: CC(=O)N[C@@H](CCCNC(=N)N)C(=O)N[C@@H](CO)C(=O)N[C@@H](CCCNC(=N)N)C(=O)N[C@H]1CSSC[C@@H](C(=O)N[C@H](C(N)=O)[C@@H](C)O)NC(=O)[C@H](CCCNC(=N)N)NC(=O)[C@H](Cc2c[nH]cn2)NC(=O)[C@H](C)NC(=O)CNC(=O)[C@H](Cc2c[nH]c3ccccc23)NC(=O)[C@H](CC(=O)O)NC(=O)[C@H](CCC(N)=O)NC(=O)[C@H](Cc2cn(C)c3ccccc23)NC(=O)[C@H](C(C)C)NC1=O
IC50 (assay not named in Table 7; preliminary C3b ELISA by paragraph 235) [2]: 470000 nM

Ac-[Trp(1-Me)]CVWQDWGAHRCT-NH2 (disulfide 2-12) [Peptide II, Ac-me…-NH2]
IC50 (assay not named in Table 7; preliminary C3b ELISA by paragraph 235) [2]: 240000 nM

Ac-NRLCV[Nal]QDWG[Nal]HRCT-NH2 (disulfide 4-14; not fully specified; printed as Ac-NRLCV{Nal}QDWG{Nal}HRCT-NH2) [Peptide 4.7, Ac-NR-LCV{Nal}QDWG{Nal}HRCT-NH2]
C3b ELISA IC50 [1]: 2300 nM | C5b-9 ELISA IC50 [1]: 1400 nM | Lysis IC50 [1]: 1300 nM

Ac-NNLCVWQDWG[Nal]HRCT-NH2 (disulfide 4-14; not fully specified; printed as Ac-NN-LCVWQDWG{Nal}HRCT-NH2) [Peptide 4.2, Ac-NN-LCVWQDWG{Nal}HRCT-NH2]
C3b ELISA IC50 [1]: 2900 nM | C5b-9 ELISA IC50 [1]: 1900 nM | Lysis IC50 [1]: 2100 nM

Ac-RSICVWQDWGAHRCT-NH2 (disulfide 4-14) [Peptide 3.4, Ac-RS-ICVWQDWGAHRCT-NH2]
C3b ELISA IC50 [1]: 700 nM | C5b-9 ELISA IC50 [1]: 600 nM | Lysis IC50 [1]: 300 nM

Ac-RSICV[Nal]QDWG[Nal]HRCT-NH2 (disulfide 4-14; not fully specified; printed as Ac-RSICV{Nal}QDWG{Nal}HRCT-NH2) [Peptide 4.8, Ac-RS-ICV{Nal}QDWG{Nal}HRCT-NH2]
C3b ELISA IC50 [1]: 4100 nM | C5b-9 ELISA IC50 [1]: 2400 nM | Lysis IC50 [1]: 2800 nM

B7: Peptide 3.3, Ac-NR-LCVWQDWGAHRCT-NH2 (peptide)
peptide: Ac-NRLCVWQDWGAHRCT-NH2
modifications: disulfide 4-14
SMILES: CC(=O)N[C@@H](CC(N)=O)C(=O)N[C@@H](CCCNC(=N)N)C(=O)N[C@@H](CC(C)C)C(=O)N[C@H]1CSSC[C@@H](C(=O)N[C@H](C(N)=O)[C@@H](C)O)NC(=O)[C@H](CCCNC(=N)N)NC(=O)[C@H](Cc2c[nH]cn2)NC(=O)[C@H](C)NC(=O)CNC(=O)[C@H](Cc2c[nH]c3ccccc23)NC(=O)[C@H](CC(=O)O)NC(=O)[C@H](CCC(N)=O)NC(=O)[C@H](Cc2c[nH]c3ccccc23)NC(=O)[C@H](C(C)C)NC1=O
C3b ELISA IC50 [1]: 600 nM | C5b-9 ELISA IC50 [1]: 500 nM | Lysis IC50 [1]: 300 nM
